From the nanobody polyreactivity screen of Harvey et al. (2022)

Test: yeast display, Sf9 membrane polyspecificity reagent, FACS + sequencing; frameworks hold sequencing errors
Procedure, shortened: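 A synthetic nanobody library was expressed on Saccharomyces cerevisiae BJ5465 by galactose induction for 36–48 hours. The library was stained for 1 hour at 4 °C with 10% biotinylated, detergent-solubilized Sf9 membrane reagent and enriched with streptavidin microbeads before FACS. Low and high (top ~1%) gates were set on anti-HA fluorescence for expression and streptavidin fluorescence for reagent binding, and each polyreactivity label reflects the gate of origin.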

| Sequence | polyreactivity (PSR sort gate) |
| --- | --- |
| QVQLVESGGGLVQAGGSLRLSCAASGRIIADNAMGWYRQAPGKERELVATISSGGSTSYADSVKGRFTLSRDNAKNTVYLQMNSLKPEDTAVYYCATPFTGPSGPYDYWGQGTQGTVSS | low polyreactivity |
| QVQLVESGGGLVQAGGSLRLSCAASGSTFFGYDMGWYRQAPGTERELVATINSGGSTYYADSVKGRFTISRDNAKYTVYLQMNSLKPEDTAVYYCAARPSYLYPFDRTGEYDYWGQGTQVTVSS | high polyreactivity |
| QVQLVESGGGLVQAGGSLRLSCAASGSTFKPNAMGWSRQAPGKERELVAAINGSGGDTYYADSVKGRFTISRDYANNTFYLQMNSLKPEDTAVYYCAAQWGYYNYWYGYWGQGTQVTVSS | low polyreactivity |
| QVQLVESGGGLVQAGGSLRLSCAASGFIFPLYAMGWYRQAPGKERELVAAITWRGDTTSYADSVKGRFTISRDNAKNTVYLQMNSLKPEDTAVYYCAAVRYPSGYDYWGQGTQVTVSS | high polyreactivity |
| QVQRVESRGGLVQAGGSLRLTCAASGRTFWRYVMGWYRQAPGKERELVATISSGGSTNYAYSVKGRFTISRDNAKNTVYLQMNSLKPEDTAVYYSAAYIYDGVWVYPYYPYDYWGQGTQVTVSS | low polyreactivity |
| QVQLVESGGGIVQAGGSLRLSCAASGSTFETNAMGRDRQAPGKERELVAAIRWSTGNTYYADSVNGRFTISRDNAKNTVYLQMNSLITEDTAVYYCAAYKAKHYKDGYWGQGTQVSVSS | low polyreactivity |
| QVQLVESGGGLVQAGGSLRLSCAASGRIFEYYAMGWYRQAPGKERELVAAINSSGGSTYYADSVKGRFTISRDNAKNTVYLQMNSLKPEDTAVYYCAARSYASPGWRYEYWGQGTQVTVSS | low polyreactivity |
| QVQLVESGGGLVQAGGSLRLSCAASGLIFGRYAMGGYRQAPGKEREFVAAITWRVGTTYYADSVKGRFTISRDNAKITVYLQMNSLKPEDTAVYYCAARSRTGRYDYWGQGTQVTVSS | high polyreactivity |
| QVQHVESGGGLVQAGGSLRLSCAASGTTFVLYAMGWYIQAPGKERELVAAITWSGGITYYADSVKGRFTISRDNAKNTVYLQMNSLKPEDTAVYYCNAEQKQYEKSYDYWGQGSQVTVSS | low polyreactivity |
| QVQLVESGGGLVQAGGSLRLSCAASGSIFITYAMGWYRQAHGKERELVAAIRDSGDRTYYADSVKGRFTISRDNAKNTVYLQMNSLKPEDTAVYYCNKDIERYVRIYDSWGQGTQVTVSS | low polyreactivity |
| QVHLVASGGGLVQAGGSLRLSCAASGSIFRRYAKGSYRQAPGKERELGAGISSGGYTNYAASVKGPFTISRDNAKNNVYLQRYSLKPEDTAVYYCAANQYRDVRYRPVDYWGQGTQVTVSS | high polyreactivity |
| QVQLVESGGGLVQEGGRLRLSCAASGRIISINAMGWYRQAPGKERELVAAITRGGTTYADSVKGRFTISRDIAKNTVYLHMNRLKPEDPAVYYCNARTGRSPSGFRYWGQGTQVTVSS | high polyreactivity |
| QVQLVESGGGLVQAGGSLRLSCAASGSIFPIYTMGWYRQAPGKERELVAAITYNAGSTYYADSVKGRFTISRDNAKNTVYLQMNSLKPEDTAVYYCAADRYYDRTFPGYDYWGQGTQVTVSS | low polyreactivity |
| QVQLVESGGGLVQAGGSLRLSCAASGLIFHKNAMGWYRQAPGKERELVATITSGGNTNYADSVKGRFTISRDNAKNTVYLQMNSLKPEDTAVYYCAKDTHLLNEHSGTSREYDYWGQGTQVTVSS | low polyreactivity |
| QVQLVESGGGLVQAGGSLRLSCAASGSIFNPYVMGWYRQAPGKERELVAAISSSGGRTYYADSVKGRFTISRDNAKNTVYLQMNSLKPEDTAVYYCAAIPRQGYDYWGQGTQVTVSS | high polyreactivity |
| QVQLVESGGGLVQAGGSLRLSCAASGRIFYRYAMGWYRQAPGKERELVARITSSGSTNYADSVKGRFTISRDNAKNTVYLQMNSLKPEDTAVYYCAARKLFIPKYYYWGQGTQVTVSS | high polyreactivity |
| QVQLVESGGALVQAGGSLRLSCAASGSIFFENAMGWYRPAPGKERELVAAIRSGVDTYYADSVKGRFTLSRDNAKNTVYLQMNSLKPQDTAVYNCNADAYYYYAIWWSEVDYWGQGTQVTVSS | low polyreactivity |
| QVQLVESGGGLVQAGGSLRLSCAASGFTFGRYAMGWYRQAPGKERELVAAITWSGGTTTYYADSVKGRFTISRDNAKNTVYLQMNSLKPEDTAVYYSAADLYFYIYSYNYWGQGTQVTVSS | low polyreactivity |
| QVQLVESVGGLVQAGGSLRLSCAASGSIFRAYAMGWYRQAPGKERELVAAISRSGDSTYYADSVKGRFTISRDNAKNTVYLQMNSLKPEDTADYYCAAQRKPYVRPSGPYKRRDYWGQGTQVTVSS | high polyreactivity |
| QVQLVESGGGLVQAGGSLRLSCAASSIFRTYAMGWYRQAPGKERELVAAITWSGASTNYADSVKGRFTISRDNAKNTVYLQMNSLKPEDTAVYYCNADWRYYPSFKYYYWGQGTQVTVSS | high polyreactivity |
| QVQLVESGGGLVQAGGSLRLSCAASGFTFNQNAMGWYRQAPGKERELVAAISASGGSTYYADSVKGRFTISRDNAKNTVYLQMNSLKPEDTAVYYCAARGTYRYTKYNYWGQGTQVTVSS | high polyreactivity |
| QVQLVESGGGLVQAGGSLRLSCAASGRTFAYYAMGWYRQAPGKERELVAAISTSGTRTYYADSVKGRFTISRDNAKNTVYLQMNSLKPEDTAVYYCAARYRYQYEFDYWGQGTQVSVSS | high polyreactivity |

| Sequence | polyreactivity (PSR sort gate) |
| --- | --- |
| QVQLVESGGGLVQAGGSLRLSCAASGSTFNPYAMGWYRQAPGKERELVAAITWSSDDTYYADSVKGRFTISRDNAKNTVYLQMNSLKPEDTAVYYCAATTVTQWYTITVAYGYWGQGTQVTVSS | low polyreactivity |
| QVQLVESGGGLVQAGGSLRLSCAASGFTFVHNAMGWYRQAHGKERELVAAISSSGGRTYYADSVKGRFTISRDNAKNTVYLQMNSLKPEDTAVYYCATVNRYGPSYGYWGQGTQVTVSS | high polyreactivity |
| QVQLVESGGGLVQAGGSLRLSCAASGRTFYDYAMGWYREAPGKEMELVASIRGSDGSTYYADSVKGRFTISRDKAKNTVYLQMNSLKPEDTSVYYCAARGFYGTNGRVYITSYYYLGQGTQVTVSS | high polyreactivity |
| QVQLVESGGGLVQAGGSLRISCAASGSIFRVYAMGWYRPAPGKERELVASITLSGGSTYYADSVKGRVTISRDNAKNTVYLQMNSLKPDDTAVYSCAARKRYRNPNTSRGMDYWGQGTQVNVSS | high polyreactivity |
| QVQLVDSGGGLVQAGGSLRLSCAASGSTSYWYAMGWYRLAPWKEMELFATIRSRGGSTSYADSVKGRFTISRDNAKNTVYLQMNSLKPEDTAVYYCAVEYQSWKGWWFDYWGQGTQVTVSS | high polyreactivity |
| QVQHVESGGGLVQAGGSIRLSGAASGRIILGYDMGWYRQPPGKDRELVAAINSVASTNYADSVKGRFTISRDNAKNTVYLQMNSLKPEDTAVYYCAAVYFLVEADLPAYDYWGQGTQVTVSS | low polyreactivity |
| QFQLVESGGGLDQAGGSLRLSCAASGSTSRKYTMGWYRQAPGTDRELVATISWSGGSTNYADSVKGRFTISRDNAKNTVYLQMNSLKPEDTAVYYCNAYVSPRYRGSRYYYWGQGTQVTVSS | high polyreactivity |
| QVQIVESGGGLVQAGGSLRLSCDASGRIFTAYAMGWYRQAPGKERELVAAISSGDSTYYAYSVKGRFSISRDNAKNTLYLQMNSLNPEDTEVYYCATCVYPDFEYDSWGQGTQVTVSA | low polyreactivity |
| QVQLVESGGGLVQAGGSLRLSCAASGTFGVYAMGWYRQAPGKERELVAVITDSGGTNYADSVKGRFTISRDNAKNTVYLQMNSLKPEDTAVYYCNTDAGDYYGENYWGQGTQVTVSS | low polyreactivity |
| QVQLVESGGGLVQAGGSLRLSCAASGRTLKYNAMGWYRQAPGKERELVAAISWSGTRTYYADSVKGRFTISRDNAKNTVYLQMNSLKPEDTAVYYCALYGGLGDRFRPRYYWGQGTQVTVSS | high polyreactivity |
| QVQLVESGGGLVQAGGSLRLSCAASGSIFRYYAMGWYRQAPGKERELVAAISWSVGGTYYADSVKGRFTISRDNAKNTVYLQMNSLKPEDTAVYYCAADVLYTQYGYWGQGTQVTVSS | low polyreactivity |
| QVHLVESGGGLVQAGGSLRLSCAASGRTFPSYAMGWYRQAPGKERELVAAITRGGSTYYADSVKGRFTISRDNAKNTVYLQMNSLKPEDTAVYYCATRYGRARAYYYWGQGTQVTVSS | high polyreactivity |
| QVQLVESGGCLVQAGGSLRFSCAASGLTLFRYAMGWYRQAPGKERELVAAIDYGGGTYYADSVKGRFRISRDNAKNTVYLQMNSLKPEDTAVYYCAVEPEYKYYEGDYWGQGTQVNVSS | low polyreactivity |
| QVQLVESGGGLVQAGGSLRLSCAASGFTFWVYAMGWYRQAPGKERELVADISSGGSTNYADSVKGRFTISRDNAKNTVYLQMNSLKPEDTAVYYCATYRARWTWYTRYDYWGQGTQVTVSS | high polyreactivity |
| QVQLVESGGGLVQAGGSLRLSCAASGNNFSYNAMGWYRQAPGKERELVAAITTSSGRTYYADSVKGRFTISRDNAKNTVYLQMNSLKPEDTAVYFCNAVQRYQIGYWGQGTQVTVSS | high polyreactivity |
| QVQLVESGGGLVQAGGSLRLSCAASGIIFENYAMGWYRQAPGKERELVAAITIGGSTYYADSVKGRFTISRDNAKNTVYLQMNSLKPEDTAVYYCAARSGAQRGGGYWGQGTQVTVSS | high polyreactivity |
| QVQLVESGGGLVQAGGSLRLSCAASGLTLSYNAMGWYRQAPGKERELVAAIRSGGSTNYADSVKGRFTISRDNAKNTVYLQMNSLKPEDTAVYYCAARFRYLPYRYGRYQSGYEYWGQGTQVTVSS | high polyreactivity |
| QVQLVESGGGLVQAGGSLRLSCAAAGFIFRYYAMGWYRPAPGKVRELVAAITNSGVSTYYADSVKGRFTISRDNAKNTVYLQMNRLKPEDTAVYYCAATYRTRTSQYDYWGQGTQVTVSS | high polyreactivity |
| QVQLVESGGGLVQAGGSHRLSCAASGSIFYVNAMGWYRQSPGKERELVAAINRGGVSTYYADSVKGRFTISRDNAKNTVYLLMNSLKPEDTAVYYCATDFYLSTYSHYVWLYGYEFYYWGQGTQVTVSS | low polyreactivity |
| QVQLQESGGGLVQASGSLRLSCAASGNIFPDYVMGWYRLAPGKEREFVANITGGSTTNYADSVKGRFTISRDNAKNTVYLQMNSLNPEDTAVYYCAVNFGTVVLYLYWGQGTQVTVSS | high polyreactivity |
| QVQLVESGGGLVQAGGSLRLSCAASGSTFYLYAMGWYRQAPGKERELVAAISWTGGSTTYADSVKGRFTISRDNAKNTVYLQMNSLKPEDTAVYYCAADEGLIDGRAWYGYWGQGTQVTVSS | low polyreactivity |
